This assay has as its system hemG knockout E. coli strain. It is filed as cell-based.

B1: A. tuberculatus PPO: wild-type protoporphyrinogen oxidase from Amaranthus tuberculatus (WH), SEQ ID NO:80, negative control expressed in E. coli (protein, listed as Amaranthus tuberculatus)
chain: MGNISEREEPTSAKRVAVVGAGVSGLAAAYKLKSHGLSVTLFEADSRAGGKLKTVKKDGFIWDEGANTMTESEAEVSSLIDDLGLREKQQLPISQNKRYIARDGLPVLLPSNPAALLTSNILSAKSKLQIMLEPFLWRKHNATELSDEHVQESVGEFFERHFGKEFVDYVIDPFVAGTCGGDPQSLSMHHTFPEVWNIEKRFGSVFAGLIQSTLLSKKEKGGENASIKKPRVRGSFSFQGGMQTLVDTMCKQLGEDELKLQCEVLSLSYNQKGIPSLGNWSVSSMSNNTSEDQSYDAVVVTAPIRNVKEMKIMKFGNPFSLDFIPEVTYVPLSVMITAFKKDKVKRPLEGFGVLIPSKEQHNGLKTLGTLFSSMMFPDRAPSDMCLFTTFVGGSRNRKLANASTDELKQIVSSDLQQLLGTEDEPSFVNHLFWSNAFPLYGHNYDSVLRAIDKMEKDLPGFFYAGNHKGGLSVGKAMASGCKAAELVISYLDSHIYVKMDEKTA
Regarding B1, the “sensitivity to PPO herbicides (negative control)” value (all of the PPO herbicides) is “sensitive to all of the PPO herbicides”.

B2: R1 N311: microbial HemY protoporphyrinogen oxidase, SEQ ID NO:16 (protein, listed as Bacillus atrophaeus)
chain: MSDGKKHLVIIGGGITGLASAFYMEKEIREKNLPLSVTLVEASPRVGGKIQTARKDGYIIERGPDSFLERKKSAPELVEDLGLEHLLVNNATGQSYVLVNETLHPMPKGAVMGIPTKIAPFMSTGLFSFSGKARAAMDFVLPASKPKEDQSLGEFFRRRVGDEVVENLIEPLLSGIYAGDIDRLSLMSTFPQFYQTEQKHRSLILGMKKTRPQGSGQRLTAKKQGQFQTLKTGLQTLVEELENQLKLTKVYKGTKVTNISRGEKGCSIALDNGMTLDADAAIVTSPHKSAAGMFPDLPAVSQLKDMHSTSVANVALGFPQEAVQMEHEGTGFVISRNSDFSITACTWTNKKWPHSAPEGKTLLRAYVGKAGDESIVELSDNEIIKIVLEDLKKVMKIKGEPEMTCVTRWNESMPQYHVGHKQRIKKVREALAASYPGVYMTGASFEGVGIPDCIDQGKSAVSDVLAYLFG
Regarding B2, the “growth rate of hemG knockout E. coli strain in presence of PPO herbicide” value (acifluorfen, flumioxazin, lactofen, or fomesafen, saturating amount) is “did not grow”.

(Values after patent publication US11319551B2, “Methods and compositions for PPO herbicide tolerance in plants” (Monsanto Technology LLC, priority 2015, dated 2022).)
